Patent US7416847, “In vitro peptide or protein expression library” (Isogenica Limited)

Columns and labels:
[1] = biological target: T1, P2 A protein (replication initiation protein A), His6-tagged (Bacteriophage P2, UniProt Q06419 Q06419:1-761); experiment: pulldown; Ni-NTA selection of His::A plasmid over A plasmid pEN21; no enrichment when S30 extract omitted; whole plasmid assayed, listed sequence is only the attachment region; 1 mM imidazole wash; settings: tags: N-terminal His6 (expressed from pEE711 or pEN24 in E. coli T7 S30 extract, Promega)
T1 sequence: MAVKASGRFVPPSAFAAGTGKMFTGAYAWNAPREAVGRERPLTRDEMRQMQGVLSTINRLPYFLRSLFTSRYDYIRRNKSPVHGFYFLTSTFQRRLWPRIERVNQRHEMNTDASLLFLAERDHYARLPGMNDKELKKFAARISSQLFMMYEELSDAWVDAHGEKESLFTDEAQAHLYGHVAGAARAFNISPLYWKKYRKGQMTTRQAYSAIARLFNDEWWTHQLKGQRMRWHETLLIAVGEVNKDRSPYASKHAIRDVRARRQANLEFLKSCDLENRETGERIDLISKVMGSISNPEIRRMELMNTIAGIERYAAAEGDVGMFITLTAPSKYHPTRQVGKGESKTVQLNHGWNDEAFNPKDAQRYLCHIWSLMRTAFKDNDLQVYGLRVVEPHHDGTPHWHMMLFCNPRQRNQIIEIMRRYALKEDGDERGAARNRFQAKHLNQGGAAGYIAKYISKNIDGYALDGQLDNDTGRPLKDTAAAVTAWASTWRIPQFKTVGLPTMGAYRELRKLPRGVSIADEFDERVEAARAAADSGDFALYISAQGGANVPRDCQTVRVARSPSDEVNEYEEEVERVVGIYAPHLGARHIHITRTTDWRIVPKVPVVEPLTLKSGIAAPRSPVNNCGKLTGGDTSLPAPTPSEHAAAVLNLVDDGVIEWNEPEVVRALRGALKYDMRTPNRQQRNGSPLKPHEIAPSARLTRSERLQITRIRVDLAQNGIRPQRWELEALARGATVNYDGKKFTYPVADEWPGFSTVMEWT
Excerpt: In the second experiment two new plasmid constructs pEN21 (an A gene construct with an amp resistance gene, see FIG. 1) and pEN24 (a His::A gene construct with a tag of six histidine residues and a kanamycin resistance gene, see FIG. 1) were subjected to the same type of experiment as in experiment 1 above, with the modifications indicated in the materials and methods section below. By employing this differential antibiotic resistance it is possible to score for the individual plasmid types directly as bacterial colonies.
Materials and Methods pEN21 and 24 are derivatives of pET21a and pET24a (Novagen Inc. USA). The pET21a and pET24a vectors differ only by their selectable marker (ampicillin and kanamycin resistance respectively). The pEN21 and pEN24 were constructed by restriction cutting of pEE709 and pEE711 with XbaI and BlpI which cuts out the A gene and flanking regions. pET21a and pET24a were cut with the same restriction enzymes. The A-fragments and new vector fragments were isolated from an agarose gel after electrophoresis by Spin-Bind columns (FMC). […] The plasmids were incubated for 30 minutes in the S30 extracts and the plasmid types were scored by differential antibiotic resistance using ampicillin (pEN21) and kanamycin (pEN24) plates after transformation of E. coli strain BK 2118 by electroporation. […]

[2] = biological target: T1, P2 A protein (replication initiation …); experiment: pulldown; Ni-NTA selection of His::A plasmid over A plasmid pEE709; cis covalent binding; whole plasmid assayed, listed sequence is only the attachment region; 50 mM Na-phosphate pH 8.0, 300 mM NaCl, 20 mM imidazole; settings: tags: N-terminal His6 (expressed from pEE711 or pEN24 in E. coli T7 S30 extract, Promega)
Method: One ug of DNA of the pEE709 and the pEE711 plasmids respectively was added to the coupled transcription/translation extract kit (20 ul S30 premix, 5 ul aminoacid mix and 15 ul *E. Coli* T7 S30 extract system for circular DNA, Promega, USA). The transcription/translation was allowed to proceed for 60 minutes at 37° C. The extract mixture was diluted 12-fold in washing buffer (Qiagen; […] Na-phosphate pH 8.0, 300 mM NaCl, 20 mM imidazole, 1 mM PMSF) and subjected to Ni selection by addition to a Ni-NTA spin column (Qiagen, Germany) equilibrated with Buffer 1 (50 mM Na-phosphate pH 8.0, 300 mM NaCl, 20 mM imidazole) under non-denaturing conditions. […] High efficiency competent cells JM109 (Promega, USA) were transformed with a portion of the eluant and scored for ampicillin resistant colonies. […]
To determine the distribution (ratio) of the plasmid types in the eluant, the presence of plasmids was measured by transformation of strain JM 109 (Promega) for amp-resistance. Colonies were picked and analysed for their plasmid type (differentiated by size) after plasmid extraction followed by agarose gel electrophoresis. The ratio of pEE711 (His::A) to pEE709 (A) in the absence of Ni-column selection was also determined.

B1: pEN24 plasmid encoding His::A (contains P2 A attachment site) (dsDNA)
DNA 1: AGCGGCATCGCCGCGCCTCGGAGTCCTGTC
DNA 2: GACAGGACTCCGAGGCGCGGCGATGCCGCT
In the case of B1, the binding signal [1] is reported as 6.8 fold enrichment.

B2: pEE711 plasmid encoding His::A (contains P2 A attachment site) (dsDNA)
DNA 1: B1 DNA 1
DNA 2: B1 DNA 2
B2 showed a binding signal [2] of 13.3 fold enrichment.
